Consider one substance from patent US20110251375A1.

Test [1] has as its target hen egg lysozyme (hen) (UniProt P00698). Description: ELISA, no periplasmic extract; anti-His4 and anti-mouse HRP on HEL coated at 3.125 µg/ml.
Test [2] has the same target. Description: ELISA, no periplasmic extract; anti-His4 and anti-mouse HRP on HEL coated at 25 µg/ml.
For test [3] the target is unchanged. Description: ELISA, no periplasmic extract; anti-His-(4) and goat anti-mouse IgG-HRP alone on coated HEL (20 µg/ml); negative control, no-antigen well 0.018.
The target is the same in test [4]. Put plainly: ELISA, no periplasmic extract; anti-His4 and anti-mouse HRP on HEL coated at 12.5 µg/ml.
For test [5] the target is unchanged. Put plainly: ELISA, no periplasmic extract; anti-His4 and anti-mouse HRP on HEL coated at 6.25 µg/ml.
The target is the same in test [6]. Put plainly: ELISA, no periplasmic extract; anti-His4 and anti-mouse HRP on HEL coated at 50 µg/ml.
Test [7] has the same target. Description: ELISA, no periplasmic extract; anti-His4 and anti-mouse HRP on coated HEL (100 µg/ml), 12 parallel readings.
The target is the same in test [8]. Description: ELISA, no periplasmic extract; anti-His4 and anti-mouse HRP on HEL coated at 200 µg/ml.
Test [9] has as its target recombinant human Erythropoietin (rhEPO) (human) (UniProt P01588). Description: ELISA, no periplasmic extract; anti-His-(4) and goat anti-mouse IgG-AP alone on coated rhEPO; negative control, no-antigen well 0.090.
UniProt P01588, sequence (P01588 28-192 limits assumed): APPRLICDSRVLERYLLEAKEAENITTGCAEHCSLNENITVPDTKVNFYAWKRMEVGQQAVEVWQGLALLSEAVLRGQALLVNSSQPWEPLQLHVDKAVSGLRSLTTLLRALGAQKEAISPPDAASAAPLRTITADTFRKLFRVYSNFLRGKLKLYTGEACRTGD
Test [10] addresses hen egg lysozyme (hen) (UniProt P00698). Description: ELISA, no periplasmic extract; anti-His4 and anti-mouse HRP on HEL coated at 0.39 µg/ml.
Test [11] shares this target. Put plainly: ELISA, no periplasmic extract; anti-His4 and anti-mouse HRP on HEL coated at 100 µg/ml.
The target is the same in test [12]. Put plainly: ELISA, no periplasmic extract; anti-His4 and anti-mouse HRP on coated HEL (100 µg/ml), 12 parallel readings. This is another data set of the same source.
Test [13] shares this target. Put plainly: ELISA, no periplasmic extract; anti-His4 and anti-mouse HRP on HEL coated at 1.55 µg/ml.

Where two headings read alike, the source gives them in different places.

UniProt P00698, sequence (P00698 19-147 limits assumed): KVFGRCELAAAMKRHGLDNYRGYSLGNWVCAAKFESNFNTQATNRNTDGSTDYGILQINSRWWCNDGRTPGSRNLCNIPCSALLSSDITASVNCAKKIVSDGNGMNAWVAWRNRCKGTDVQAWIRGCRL

For the substance anti-His4 antibody (Qiagen), the ELISA absorbance (no periplasmic extract) was 0.017 A 492/620 with hen egg lysozyme (hen) [1]; 0.072 A 492/620 with hen egg lysozyme (hen) [2]; 0.038 A 492/620 with hen egg lysozyme (hen) [4]; 0.023 A 492/620 with hen egg lysozyme (hen) [5]; 0.165 A 492/620 in the test with hen egg lysozyme (hen) [6]; 0.449 A 492/620 in the test with hen egg lysozyme (hen) [8]. The ELISA absorbance (no periplasmic extract) was found to be 0.007 A 492/620 with hen egg lysozyme (hen) [10], 0.36 A 492/620 in the test with hen egg lysozyme (hen) [11] and 0.013 A 492/620 with hen egg lysozyme (hen) [13]. The values for the absorbance, no periplasmic extract (control) (with hen egg lysozyme (hen) [3]; in test [9]) were 0.11 A 492/620 nm and 0.095 A 405/620 nm, respectively. Also, the values for the A 492/620 background (antigen alone) with hen egg lysozyme (hen) [7] and with hen egg lysozyme (hen) [12] were 0.176 A 492/620 and 0.133 A 492/620, respectively.
